The values below come from patent publication EP4722237A1, “METHOD FOR DETECTING BIOLOGICAL ACTIVITY OF INSULIN OR ANALOGUE THEREOF AND KIT” (Sunshine Lake Pharma Co., Ltd., priority 2023, dated 2024).

Assay [1] deals with T1, insulin receptor B (Homo sapiens, UniProt P06213).
T1 construct: expressed in transfected cells; host or cells: HEK293 (HEK293-IRB monoclonal line; HEK293/IRB-STAT5b-03-Luciferase 001#clone)
Kind of assay: Luciferase reporter gene detection method (HEK293/IRB-STAT5b-03-Luciferase cells, luminescence signal). The assay is classed as cell-based. As to conditions: after stimulation of cells. The procedure:
① 0.6 mM insulin glargine reference solution: An appropriate amount of insulin glargine reference was weighed, dissolved completely in 0.01 M HCL and diluted to 0.6 mM, and mixed thoroughly.
② 0.6 mM Insulin Glargine Test Solution: An appropriate amount of insulin glargine injection solution was taken.
③ 15000 nM Reference/Test Solution Stock Solution: 780 µl of 0.01 M hydrochloric acid solution was added to 20 µl of a 0.6 mM insulin glargine reference/test solution and mixed thoroughly.
④ […] control/test solution: 780 µl of DMEM medium containing 1% FBS (fetal bovine serum) was added to 20 µl of a 15000 nM reference/test solution.
⑤ Serial dilutions of control/test compounds: Dilutions were performed in a 96-well plate according to the method shown in Table 1.
The culture flask was taken out of the incubator, the culture medium was discarded, and 2 ml of DPBS (sterile saline) buffer was added and gently washed twice. 1 ml of DPBS and 1 ml of trypsin solution were slowly added along the cell-free side of the flask to digest the cells for approximately 2 min. […]
After 15 h of incubation, the 384-well plate was removed from the incubator and allowed to stand at room temperature for approximately 5 min. […] After 3 minutes, the luminescence signal was detected in the LUM mode on a multi-functional microplate reader. […]

Assay [2] concerns the target insulin IR β receptor (Homo sapiens, UniProt P06213). Kind of assay: HTRF kit method (insulin receptor phosphorylation). In kind it is cell-based. As to conditions: specificity comparison, Figure 6. The source says: Currently, commercial kits such as HTRF (homogeneous time-resolved fluorescence) and AlphaElisa are commonly used to assess insulin activity. These assays measure insulin IR β receptor phosphorylation levels to characterize insulin's cellular bioactivity. On the one hand, commercial test kits such as HTRF and AlphaElisa are expensive and have high detection costs; on the other hand, technical means such as HTRF and AlphaElisa are relatively complicated to operate, usually requiring the addition of insulin drugs to co-incubate with cells, then adding lysis buffer for incubation and lysis, and then adding the corresponding phosphorylated antibody solution for incubation, and finally testing. Under normal circumstances, the sample volume of each step of these kits needs to be controlled to 4~8 µl, which requires a high level of operational skills of the analyst.
Two different analysts used the same batch of test products (prepared in 6 parallel portions) and reference products to perform tests using the HTRF kit method on different dates.

With liraglutide, in assay [1], the dose-effect relationship entry is recorded as “no obvious dose-effect relationship”. Also, the “response in HTRF kit assay” value in assay [2] is “no response”.
